Test results as given in patent US20150274826A1 (ARCH ONCOLOGY, published 2015).
Changes are numbered by the printed parent chain. In names and notes the source's numbering stands.

T1: mouse CD47 (mouse, UniProt Q61735 19-303)
T1 construct: whole, on cells; also called CD47 on mouse RBCs; CD47 on 4T1 cells
T1 sequence (looked up): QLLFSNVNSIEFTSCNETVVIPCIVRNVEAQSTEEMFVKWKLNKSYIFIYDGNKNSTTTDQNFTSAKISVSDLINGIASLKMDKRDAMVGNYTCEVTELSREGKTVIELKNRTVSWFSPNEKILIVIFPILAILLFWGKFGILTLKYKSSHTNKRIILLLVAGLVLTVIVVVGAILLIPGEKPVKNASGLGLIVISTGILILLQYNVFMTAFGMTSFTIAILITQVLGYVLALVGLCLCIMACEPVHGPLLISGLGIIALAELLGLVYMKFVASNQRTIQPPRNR

T2: rat CD47 (rat, UniProt P97829 19-303)
T2 construct: whole, on cells; also called CD47 on rat RBCs
T2 sequence (looked up): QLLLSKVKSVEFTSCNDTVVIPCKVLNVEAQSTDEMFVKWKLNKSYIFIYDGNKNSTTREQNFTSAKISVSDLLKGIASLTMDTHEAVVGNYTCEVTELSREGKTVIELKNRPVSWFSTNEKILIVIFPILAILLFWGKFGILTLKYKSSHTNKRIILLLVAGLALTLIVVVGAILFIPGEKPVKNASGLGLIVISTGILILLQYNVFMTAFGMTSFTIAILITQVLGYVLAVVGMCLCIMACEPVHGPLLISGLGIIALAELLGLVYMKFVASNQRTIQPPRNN

T3: pig CD47 (pig, UniProt Q9GKE8 19-303)
T3 construct: whole, on cells; also called CD47 on porcine RBCs
T3 sequence (looked up): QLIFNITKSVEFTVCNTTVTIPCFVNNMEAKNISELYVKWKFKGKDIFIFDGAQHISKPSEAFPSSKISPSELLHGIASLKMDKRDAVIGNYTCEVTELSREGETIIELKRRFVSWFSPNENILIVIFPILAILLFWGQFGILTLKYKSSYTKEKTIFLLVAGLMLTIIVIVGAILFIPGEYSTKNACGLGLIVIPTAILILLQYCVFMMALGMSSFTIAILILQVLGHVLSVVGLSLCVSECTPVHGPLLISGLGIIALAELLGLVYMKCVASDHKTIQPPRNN

T4: dog CD47 (dog, UniProt A0A8I3PM61 19-310)
T4 construct: also called CD47 on dog RBCs
T4 sequence: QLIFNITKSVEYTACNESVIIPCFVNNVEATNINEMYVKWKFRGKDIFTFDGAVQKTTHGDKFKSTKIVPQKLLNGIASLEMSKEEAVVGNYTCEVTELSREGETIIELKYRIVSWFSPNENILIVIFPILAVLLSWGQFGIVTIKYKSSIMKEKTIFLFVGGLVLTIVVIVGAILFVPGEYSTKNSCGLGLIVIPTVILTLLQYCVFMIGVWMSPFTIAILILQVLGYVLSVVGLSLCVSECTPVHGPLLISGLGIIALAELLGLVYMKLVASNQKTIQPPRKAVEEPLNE

B1: Clone 18 (pVxK7b-037-hum18-LC / pVxK7b-037-hum18-HC) (antibody, human IgG1, kappa, V domains shown)
VH: EVQLVQSGAEVKKPGESLRISCKGSGYTFTNYYVFWIRQSPSRGLEWLGDINPVNGDTNFNEKFKNRVTITADKSTSTAYMELSSLRSEDTAVYYCARGGYTMDYWGQGTLVTVSS
VL: EIVLTQSPATLSVSPGERATLSCRSSQSLVHSNGNTYLHWYQQKPGQAPRLLIYKVSYRFSGVPSRFSGSGSGTDFTFTISSLEAEDAATYYCSQNTHVPRTFGQGTKVEIKR
B2: Clone 14.1 (hum14 IgG1 N297Q) (antibody)
heavy: QVQLQESGPGLVKPSQTLSLTCTVSGYTFTNYYVFWVRQARGQRLEWIGDINPVNGDTNFNEKFKNRVTISADKSISTAYLQWSSLKASDTAMYYCARGGYTMDYWGQGTLVTVSSASTKGPSVFPLAPSSKSTSGGTAALGCLVKDYFPEPVTVSWNSGALTSGVHTFPAVLQSSGLYSLSSVVTVPSSSLGTQTYICNVNHKPSNTKVDKKVEPKSCDKTHTCPPCPAPELLGGPSVFLFPPKPKDTLMISRTPEVTCVVVDVSHEDPEVKFNWYVDGVEVHNAKTKPREEQYQSTYRVVSVLTVLHQDWLNGKEYKCKVSNKALPAPIEKTISKAKGQPREPQVYTLPPSR
light: DVVMTQSPLSLPVTLGQPASISCRSSQSLVHSNGNTYLHWYQQKPGKAPKLLIYKVSYRFSGVPDRFSGSGSGTDFTLKISRVEAEDVGVYYCSQNTHVPRTFGQGTKVEIKRTVAAPSVFIFPPSDEQLKSGTASVVCLLNNFYPREAKVQWKVDNALQSGNSQESVTEQDSKDSTYSLSSTLTLSKADYEKHKVYACEVTHQGLSSPVTKSFNRGEC
notes: IgG1 N297Q
B3: Clone 8.2 (hum08 IgG4 S228P L235E) (antibody)
heavy: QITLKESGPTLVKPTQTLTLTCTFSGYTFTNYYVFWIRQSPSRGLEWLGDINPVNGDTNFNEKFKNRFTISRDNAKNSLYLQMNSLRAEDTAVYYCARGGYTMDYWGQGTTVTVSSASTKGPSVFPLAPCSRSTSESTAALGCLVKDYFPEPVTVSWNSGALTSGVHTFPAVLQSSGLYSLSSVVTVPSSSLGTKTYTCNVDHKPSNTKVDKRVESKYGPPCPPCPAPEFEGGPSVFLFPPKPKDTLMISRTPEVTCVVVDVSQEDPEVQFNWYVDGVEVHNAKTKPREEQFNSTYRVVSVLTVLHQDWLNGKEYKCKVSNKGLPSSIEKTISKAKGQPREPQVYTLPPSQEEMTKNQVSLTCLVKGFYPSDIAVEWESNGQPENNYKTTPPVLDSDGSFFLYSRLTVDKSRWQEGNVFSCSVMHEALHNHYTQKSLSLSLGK
light: B2 light with V2I, S7T, L15P, Q17E
notes: IgG4 S228P L235E
B4: Clone 8.1 (hum08 IgG1 N297Q) (antibody)
heavy: QITLKESGPTLVKPTQTLTLTCTFSGYTFTNYYVFWIRQSPSRGLEWLGDINPVNGDTNFNEKFKNRFTISRDNAKNSLYLQMNSLRAEDTAVYYCARGGYTMDYWGQGTLVTVSSASTKGPSVFPLAPSSKSTSGGTAALGCLVKDYFPEPVTVSWNSGALTSGVHTFPAVLQSSGLYSLSSVVTVPSSSLGTQTYICNVNHKPSNTKVDKKVEPKSCDKTHTCPPCPAPELLGGPSVFLFPPKPKDTLMISRTPEVTCVVVDVSHEDPEVKFNWYVDGVEVHNAKTKPREEQYQSTYRVVSVLTVLHQDWLNGKEYKCKVSNKALPAPIEKTISKAKGQPREPQVYTLPPSR
light: B2 light with V2I, S7T, L15P, Q17E
notes: IgG1 N297Q
B5: Clone 13.2 (hum 13 IgG4 S228P L235E) (antibody)
heavy: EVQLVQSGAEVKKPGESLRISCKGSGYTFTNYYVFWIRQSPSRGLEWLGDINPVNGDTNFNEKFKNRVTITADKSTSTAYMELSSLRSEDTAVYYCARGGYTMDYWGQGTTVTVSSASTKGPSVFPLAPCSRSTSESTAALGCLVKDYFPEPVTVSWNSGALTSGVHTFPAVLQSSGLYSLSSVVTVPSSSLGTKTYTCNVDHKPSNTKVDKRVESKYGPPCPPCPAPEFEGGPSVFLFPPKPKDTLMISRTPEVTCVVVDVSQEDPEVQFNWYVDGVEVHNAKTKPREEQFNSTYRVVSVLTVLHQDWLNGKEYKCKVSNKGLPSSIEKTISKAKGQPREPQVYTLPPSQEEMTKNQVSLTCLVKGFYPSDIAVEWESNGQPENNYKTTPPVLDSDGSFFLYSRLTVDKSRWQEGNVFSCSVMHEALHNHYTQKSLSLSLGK
light: B2 light with V2I, S7T, L15P, Q17E
notes: IgG4 S228P L235E version of Clone 13
B6: Clone 5.1 (hum05 IgG1 N297Q) (antibody)
heavy: QVQLQESGPGLVKPSQTLSLTCTVSGYTFTNYYVFWVRQAPGKGLEWVSDINPVNGDTNFNEKFKNRVTISVDTSKNQFSLKLSSVTAADTAVYYCARGGYTMDYWGQGTLVTVSSASTKGPSVFPLAPSSKSTSGGTAALGCLVKDYFPEPVTVSWNSGALTSGVHTFPAVLQSSGLYSLSSVVTVPSSSLGTQTYICNVNHKPSNTKVDKKVEPKSCDKTHTCPPCPAPELLGGPSVFLFPPKPKDTLMISRTPEVTCVVVDVSHEDPEVKFNWYVDGVEVHNAKTKPREEQYQSTYRVVSVLTVLHQDWLNGKEYKCKVSNKALPAPIEKTISKAKGQPREPQVYTLPPSR
light: B2 light with V2I, S7T, L15P, Q17E, Q42L, K47Q, A48S, K50Q
notes: IgG1 N297Q
B7: Clone 1.2 (hum01 IgG4 S228P L235E) (antibody)
heavy: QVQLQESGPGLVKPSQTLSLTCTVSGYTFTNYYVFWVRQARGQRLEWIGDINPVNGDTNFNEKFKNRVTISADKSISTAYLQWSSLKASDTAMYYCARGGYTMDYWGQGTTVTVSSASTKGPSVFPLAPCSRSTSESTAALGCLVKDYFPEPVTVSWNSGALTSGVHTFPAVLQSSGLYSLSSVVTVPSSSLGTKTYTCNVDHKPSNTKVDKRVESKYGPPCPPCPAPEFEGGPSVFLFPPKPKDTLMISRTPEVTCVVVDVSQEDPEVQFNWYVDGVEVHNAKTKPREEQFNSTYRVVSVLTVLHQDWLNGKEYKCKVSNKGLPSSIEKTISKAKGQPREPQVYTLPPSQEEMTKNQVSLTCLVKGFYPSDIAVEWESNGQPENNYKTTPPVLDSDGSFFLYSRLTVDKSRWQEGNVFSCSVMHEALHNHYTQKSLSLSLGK
light: B2 light with V2I, S7T, L15P, Q17E
notes: IgG4 S228P L235E version of Clone 1; also called pVxK7b-037-hum01-HC-IgG4 S228P L235E-Pro
B8: Clone 5.2 (hum05 IgG4 S228P L235E) (antibody)
heavy: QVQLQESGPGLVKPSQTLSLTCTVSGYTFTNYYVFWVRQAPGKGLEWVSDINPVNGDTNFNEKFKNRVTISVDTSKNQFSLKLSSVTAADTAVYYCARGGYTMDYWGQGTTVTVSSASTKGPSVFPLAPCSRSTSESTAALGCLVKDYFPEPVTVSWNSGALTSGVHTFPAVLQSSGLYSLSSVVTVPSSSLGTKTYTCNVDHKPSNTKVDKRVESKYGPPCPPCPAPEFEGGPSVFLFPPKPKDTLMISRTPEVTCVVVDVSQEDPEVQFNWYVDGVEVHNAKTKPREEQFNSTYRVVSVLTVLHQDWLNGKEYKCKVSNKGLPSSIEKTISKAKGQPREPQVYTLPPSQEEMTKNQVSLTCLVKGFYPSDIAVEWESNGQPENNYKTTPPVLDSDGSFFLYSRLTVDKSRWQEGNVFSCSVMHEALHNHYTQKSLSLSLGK
light: B2 light with V2I, S7T, L15P, Q17E, Q42L, K47Q, A48S, K50Q
notes: IgG4 S228P L235E
B9: Clone 3.2 (hum03 IgG4 S228P L235E) (antibody)
heavy: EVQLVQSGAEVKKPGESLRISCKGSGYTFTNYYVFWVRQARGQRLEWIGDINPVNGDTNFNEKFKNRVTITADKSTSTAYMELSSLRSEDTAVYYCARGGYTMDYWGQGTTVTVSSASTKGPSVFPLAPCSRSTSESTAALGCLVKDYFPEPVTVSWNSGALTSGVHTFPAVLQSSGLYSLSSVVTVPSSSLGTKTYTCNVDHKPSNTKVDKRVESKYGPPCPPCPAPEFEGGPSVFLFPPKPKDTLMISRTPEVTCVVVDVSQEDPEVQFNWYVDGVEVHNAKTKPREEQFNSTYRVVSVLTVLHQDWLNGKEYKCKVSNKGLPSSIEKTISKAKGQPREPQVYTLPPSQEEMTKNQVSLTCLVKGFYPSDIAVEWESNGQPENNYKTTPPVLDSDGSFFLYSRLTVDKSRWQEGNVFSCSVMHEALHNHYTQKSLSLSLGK
light: B2 light
notes: IgG4 S228P L235E
B10: Clone 3.1 (hum03 IgG1 N297Q) (antibody)
heavy: EVQLVQSGAEVKKPGESLRISCKGSGYTFTNYYVFWVRQARGQRLEWIGDINPVNGDTNFNEKFKNRVTITADKSTSTAYMELSSLRSEDTAVYYCARGGYTMDYWGQGTLVTVSSASTKGPSVFPLAPSSKSTSGGTAALGCLVKDYFPEPVTVSWNSGALTSGVHTFPAVLQSSGLYSLSSVVTVPSSSLGTQTYICNVNHKPSNTKVDKKVEPKSCDKTHTCPPCPAPELLGGPSVFLFPPKPKDTLMISRTPEVTCVVVDVSHEDPEVKFNWYVDGVEVHNAKTKPREEQYQSTYRVVSVLTVLHQDWLNGKEYKCKVSNKALPAPIEKTISKAKGQPREPQVYTLPPSR
light: B2 light
notes: IgG1 N297Q
B11: Clone 14.2 (hum14 IgG4 S228P L235E) (antibody)
heavy: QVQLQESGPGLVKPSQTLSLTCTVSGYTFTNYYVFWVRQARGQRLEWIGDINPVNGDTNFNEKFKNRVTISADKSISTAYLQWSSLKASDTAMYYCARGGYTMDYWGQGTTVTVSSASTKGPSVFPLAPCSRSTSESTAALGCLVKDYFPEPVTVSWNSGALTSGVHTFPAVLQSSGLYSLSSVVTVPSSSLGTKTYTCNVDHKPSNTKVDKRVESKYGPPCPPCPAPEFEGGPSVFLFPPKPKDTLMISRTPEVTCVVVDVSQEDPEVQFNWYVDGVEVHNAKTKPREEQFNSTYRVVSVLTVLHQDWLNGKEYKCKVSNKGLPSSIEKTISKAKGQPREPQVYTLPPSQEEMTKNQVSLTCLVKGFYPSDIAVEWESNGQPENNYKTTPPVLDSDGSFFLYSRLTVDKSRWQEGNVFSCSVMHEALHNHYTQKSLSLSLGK
light: B2 light
notes: IgG4 S228P L235E
B12: Clone 17.1 (hum17 IgG1 N297Q) (antibody)
heavy: B10 heavy with E16A, S17T, L18V, R19K, G24V, V37I, A40P, R41P, Q43K, R44G
light: AIQLTQSPSSLSASVGDRVTITCRSSQSLVHSNGNTYLHWYQQKPGQAPRLLIYKVSYRFSGVPDRFSGSGSGTDFTLKISRVEAEDVGVYYCSQNTHVPRTFGQGTKVEIKRTVAAPSVFIFPPSDEQLKSGTASVVCLLNNFYPREAKVQWKVDNALQSGNSQESVTEQDSKDSTYSLSSTLTLSKADYEKHKVYACEVTHQGLSSPVTKSFNRGEC
notes: IgG1 N297Q

The binders below were run against T5, human CD47 (human, UniProt Q08722 19-323) (assay: flow cytometry on RBCs, CHO supernatant 10 ng/ml).
T5 construct: whole, on cells; also called CD47 on human RBCs; CD47 on OV10 cells
Experimental: (§1) RBCs are incubated for 60 minutes on ice with tissue culture supernatants containing the secreted humanized antibodies at a concentration of 10 ng/ml in a solution of phosphate buffered saline, pH 7.2, 2.5 mM EDTA (PBS+E), or with various concentrations of purified antibodies. Cells are then washed with cold PBS+E, and incubated for an additional hour on ice with FITC labeled donkey anti-human antibody (Jackson Immuno Research Labs, West Grove, Pa.; Catalogue #709-096-149) in PBS+E. Cells are then washed with PBS+E, and antibody binding is analyzed using a BD FACSAria Cell Sorter (Becton Dickinson) or a C6 Accuri Flow Cytometer (Becton Dickinson). Antibody binding is quantitated by comparison of mean fluorescence values relative to that of chimeric antibody >VxP037-01LC (SEQ ID NO:7))/>VxPO37-01HC (SEQ ID NO:57). The mean fluorescence value for each antibody is divided by the mean fluorescence value for the chimeric antibody.

T5 sequence (Q08722 19-323): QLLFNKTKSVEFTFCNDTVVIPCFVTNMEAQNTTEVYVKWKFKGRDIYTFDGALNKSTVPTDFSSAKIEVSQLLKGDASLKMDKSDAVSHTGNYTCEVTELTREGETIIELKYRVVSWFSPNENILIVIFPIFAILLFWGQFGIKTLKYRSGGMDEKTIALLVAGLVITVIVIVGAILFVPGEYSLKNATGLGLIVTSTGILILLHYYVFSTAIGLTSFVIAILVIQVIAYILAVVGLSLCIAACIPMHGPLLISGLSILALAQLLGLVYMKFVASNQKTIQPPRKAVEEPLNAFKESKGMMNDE

Row | mean fluorescence relative to chimeric antibody [ratio] | Binder
1 | 1 | B1

Each binder was assayed against T1, mouse CD47 (assay: flow cytometry on RBCs, CHO supernatant 10 ng/ml).
Experimental: as §1

Row | mean fluorescence relative to chimeric antibody [ratio] | Binder
2 | 1.3 | B1

These binders were tested against T2, rat CD47 (assay: flow cytometry on RBCs, CHO supernatant 10 ng/ml).
Experimental: as §1

Row | mean fluorescence relative to chimeric antibody [ratio] | Binder
3 | 2.2 | B1

Each binder was assayed against T3, pig CD47 (assay: flow cytometry on RBCs, CHO supernatant 10 ng/ml).
Experimental: as §1

Row | mean fluorescence relative to chimeric antibody [ratio] | Binder
4 | 1.2 | B1

Each binder was assayed against T4, dog CD47 (assay: flow cytometry on RBCs, CHO supernatant 10 ng/ml).
Experimental: as §1

Row | mean fluorescence relative to chimeric antibody [ratio] | Binder
5 | 1.5 | B1

The binders below were run against T1, mouse CD47 (assay: cell-based ELISA on mouse 4T1 cells, apparent Kd).
Experimental: (§2) OV10 cells are grown in IMDM medium containing 10% heat inactivated fetal bovine serum (BioWest; S01520) and 4T1 cells are grown in RMPI medium containing 10% heat inactivated fetal bovine serum (BioWest; S01520). One day before assay, 3×10⁴ cells are plated in 96 well cell bind plates (Corning #3300, VWR #66025-626) so that they are 95-100% confluent at the time of assay. Cells are washed and various concentrations of purified antibodies added in either IMDM or RPMI at 37° C. for 1 hour in […]. Cells are then washed with media and incubated for an additional hour at 37° C. with HRP labeled secondary anti-human antibody (Promega) diluted 1/2500 in media. Cells are washed three times with PBS, and the peroxidase substrate 3,3′,5,5′-tetramethylbenzidine is added (Sigma; Catalog #T4444). Reactions are terminated by the addition of HCl to 0.7N, and absorbance at 450 nm is determined using a Tecan model Infinite M200 plate reader. The apparent binding affinities of these clones to human and mouse cells is determined by non-linear fits (Prism GraphPad software). […] Agglutination of human RBCs is assessed following incubation of human RBCs with various concentrations of humanized blocking only clones. Blood is diluted (1:50) and washed 3 times with PBS/EDTA/BSA. RBCs are added to U-bottomed 96 well plates with equal volumes of the antibodies (75 μl) and incubated for 3 hrs at 37° C. and overnight at 4° C.

Row | Kd [nM] | Binder
6 | 0.0949 | B2
7 | 0.0949 | B3
8 | 0.205 | B4
9 | 0.178 | B5
10 | 0.112 | B6
11 | 0.175 | B7
12 | 0.172 | B8
13 | 0.202 | B9
14 | 0.132 | B10
15 | 0.102 | B11
16 | 0.198 | B12

What follows are binders tested against T5, human CD47 (assay: cell-based ELISA on human OV10 cells, apparent Kd).
Experimental: as §2

Row | Kd [nM] | Binder
17 | 0.0962 | B2
18 | 0.121 | B3
19 | 0.115 | B4
20 | 0.108 | B5
21 | 0.125 | B6
22 | 0.15 | B7
23 | 0.107 | B8
24 | 0.129 | B9
25 | 0.115 | B10
26 | 0.0899 | B11
27 | 0.0855 | B12
